Data on 30 molecules can be found in paper PMC9170038, “Crowdsourced RNA design discovers diverse, reversible, efficient, self-contained molecular switches”.

Bounds are passed on as bounds.

B1: Eterna 12456 (Exclusion 4) (ssRNA)
RNA: GUAAAGUGAGGAUAUGGUAAAUUAAUUAUUAAUUAAUUAAUCCAGAAGGCACAUGAGGAUCACCCAUGUAAUUG
B2: Eterna 7685253 (Same State - Tryptophan B) (ssRNA)
RNA: AGACGCCAGUCGGCCGCCACUCACAGCAGUGAUGUUGCUGAAAAUCUAGAAGAGUGAUGUUCUUAGAGGACCGGGACUCCAGUCG
B3: Eterna 7682834 (Same State - Tryptophan A) (ssRNA)
RNA: UGUCAUGGAAACAUGAACGUUGAUGUUCGACGAGGACCGGUACGGCCGCCACUCGAGUAAUAGUCAGUGAUGUUGACUUGUUUAA
B4: Eterna 7672999 (Same State - Tryptophan B) (ssRNA)
RNA: UGGUACAUGGCGGCCGCCACUUCACGUAAAAUAAAAACUUGAGGAUCACCCAAGUAAUAAGUUGGGAGGACCGGGUCAUGUACCU
B5: Eterna 7734632 (Exclusion - FMN B) (ssRNA)
RNA: CAUACGCAUGGAGGAUAUGAGAUUUUUCAUAUUAUUUUUUAUUCUCAGUGAUGUUGGGAUUUAUAAUCAGAAGGCCAUGUGUAUG
B6: Eterna 7670643 (Exclusion - Theophylline B) (ssRNA)
RNA: UGACAUUGCUCAGAUACCAGACGUGAGCAUCAGCCAUGUGCCAACAAGUACAAAAUAAAUGUCCCUUGGCAGCUGAGCAAUGUCU
B7: Eterna 7682758 (Exclusion - Arginine A) (ssRNA)
RNA: AAUUUACAUUAAUUAUUUAAAGGUUCAGAAGGAGCGUGAAUUAACACAGGUAGGUCGCUGAGCGAGUGAUGUUCGCUAUAUACUA
B8: Eterna 6393566 (Inverted Small Loop Exclusion NG 3) (ssRNA)
RNA: AGCACGAAAGUGCAACGAUGUACGAGAAGGACAUGAGGAUCACCCAUGUUGCUGUAACUGCUUAUGUAGGAUAUCGUACAUCGA
B9: Eterna 6108976 (Same State NG 2) (ssRNA)
RNA: GUAGCAUACCGAGGAUAUUCAUAUAAUAAAUAAACAUGAGGACCACCCAUGUGGCGAAAGCCUUGGGAGAAGGCGGAAUGCUAC
B10: Eterna 7739921 (Exclusion - Arginine B) (ssRNA)
RNA: UGAUAGGACAGAAGGAGCGGCAGUGAUGUUGCCAAAAGGGUAAGGUGUCAAAAGACACCCUGCCAGGUAGGUCGCUGUCCUAUCU
B11: Eterna 7687231 (Exclusion - Arginine A) (ssRNA)
RNA: AAUGUACAAGUGAUGUUUGUACUUUCCGAAGGAGCGUCUAAUAAGACAGGUAGGUCGCGGAUUCUCUAAAUUAUCAGGUCAUUAA
B12: Eterna 7685224 (Exclusion - Theophylline B) (ssRNA)
RNA: AAUUUAUUAACUGAUACCAGACUUAAUUAAUUGUAAAUUACUAGUGAUGUUAGUGAUUCUGUCCCUUGGCAGCAGUAUUUAUUAA
B13: Eterna 7709711 (Same State - Tryptophan B) (ssRNA)
RNA: UAUAUAGUGACGGCCGCCACUAUUGUGAUGUAGUUGUUAGAGUGAUGUUUUGUUGUUUGAUUUUGUAGGACCGGGUUAUAUGUUA
B14: Eterna 1541 (Same State - FMN A) (ssRNA)
RNA: AAGUGGGAACGGCCCAAUAAAGUGUUUGUCAAGGAUAUUAUUCACAUAAGAAGGUGACAGACCACCUCCGGAGUGAUGUUUUGGA
B15: Eterna 7734297 (Exclusion - Theophylline B) (ssRNA)
RNA: GGCCGAUGGUGCGAUACCAGCUUGAGUGUACUGGCCAGGUACAUGAGGAUCACCCAUGUAAGCCCUUGGCAGCGCGUCAGAGGCC
B16: Eterna 6423537 (Small Loop Exclusion NG 1) (ssRNA)
RNA: GAGUAGAUCCGAGGAUAUACAAUCCGGAAACGGUACAUGAGGAUCACCCAUGUAGAAGGCGGAUCUACAGGUACUAAAGUACCU
B17: Eterna 7723566 (Exclusion - Tryptophan A) (ssRNA)
RNA: AUGUCGUUAUAGUGAGUGAUGUUCACUGUGCGAGGACCGGUACGGCCGCCACUCGAGAGUGGUGGACACUGAGUCACUCUGACAC
B18: Eterna 6398784 (Exclusion NG 1) (ssRNA)
RNA: CCUGCACCUCAAGGAUAUCCAGUCGAAACGACUGGAGAAGGUGAGGAUCACCCACCUAGCCUGACGAAAGUCAGGCAUGCAGGA
B19: Eterna 7712196 (Same State - FMN B) (ssRNA)
RNA: AGAGUUAUGCGAGGAUAUGCAGUUAGUACUCAAAGAGUACUAACGCAGAGUGAUGUUCUGUGAAACGCAGAAGGUGCAUAACUCA
B20: Eterna 7714851 (Same State - Theophylline B) (ssRNA)
RNA: AGAACUGUCUGAGAUACCAGCCAGGAAGUGAUGUUUCCAGCUCCACGAAAGUGGAGCCAUGGCCCUUGGCAGCUCAGACAGUUCA
B21: Eterna 1268 (Exclusion - Tryptophan B) (ssRNA)
RNA: AAGCCAUACUCGGCCGCCACUUACUUCGUUGCAGUGAUGUUGCACACGAAUCCGUCAUAGCAAAUAAGGACCGGGAGAUAUACCG
B22: Eterna 7684757 (Exclusion - Tryptophan B) (ssRNA)
RNA: AAUAAAAUCACGGCCGCCACUGAUUACCAUAUUAGGAGUGAUGUUCCUAUGACUAUAUAAUUUAACAGGACCGGGUGAAUAUUUA
B23: Eterna 7754813 (Same State - Tryptophan B) (ssRNA)
RNA: UAGUAGCUCUCGGCCGCCACUCCUCAGUGAUGUUGAGAUAUUAAGAGCCAAUUGGCUCAUAUAAAGAGGACCGGGAGAGCUACAU
B24: Eterna 12520 (Exclusion 2) (ssRNA)
RNA: AAACAGGGAGGAUAUACAUAGAUCCUCUAACCUAAUUGGUCACAUGAGGAUCACCCAUGUAGAAGGCCCUUAGG
B25: Eterna 7681870 (Exclusion - Theophylline B) (ssRNA)
RNA: CCUAUCUCAUACGAUACCAGUCAACGAGUGAUGUUCGAAUAAAUAAAUUUGCCAAAUAAUGACCCUUGGCAGCGUAUGGGAUAGG
B26: Eterna 12408 (Exclusion 4) (ssRNA)
RNA: CAUUUGUGAGGAUAUCAGGUGUGCUAGCGUACUGGUACAUCUGAGAAGGCACAUGAGGAUCACCCAUGUUUCUU
B27: Eterna 7687729 (Same State - FMN B) (ssRNA)
RNA: AUUUUUAACUGAGGAUAUCGAAUUUAUGUAGUGAUGUUACUUUAAAUUAAAAUUUUAAUUUCUUAACGAGAAGGCAGAAUAAUUA
B28: Eterna 7722469 (Exclusion - FMN A) (ssRNA)
RNA: AUUUAGACGAGUGAUGUUCGUGUUAUUACAGAGGAUAUGCGUAAUUGCAGAAGGCUGUAUUUAUAUAUGUUAUGUAGUUUUAAAA

The target of this data set is MS2 coat protein, dlFG mutant (Escherichia phage MS2, UniProt P03612, del68-81insG). The data set is described as follows: 4 mM Mg2+; no ligand; RNA-MaP array; 100 mM Tris-HCl pH 7.5, 80 mM KCl, 4 mM MgCl2, 0.1 mg/mL BSA, 1 mM DTT, 0.01 mg/mL yeast tRNA, 0.01% Tween-20; protein 1.5 nM to 3 uM; 37 C (Table S3). The settings on record: chain copies: 2; label: tethered by stalled RNA polymerase.
As for B1, the Kd was found to be 0.0248 µM.
Consider B2, for which the Kd was > 3 µM.
With B3, the Kd was > 3 µM.
Regarding B4, the Kd is 0.019 µM. That is a double-digit nanomolar value.
For B5 the value was > 3 µM; for B6, 0.0166 µM; for B7, > 3 µM.
B8 showed an equilibrium dissociation constant (Kd) of 0.00514 µM.
For B9, binding was characterised by a dissociation constant (Kd) of 1.05 µM.
In the case of B10 it was > 3 µM; in that of B11, > 3 µM.
Turning to B12, the Kd was > 3 µM.
B13: the Kd is > 3 µM.
In the case of B14, the Kd is > 3 µM.
In the case of B15 it was 0.0106 µM; in that of AAAGCAUGACGCGCUUUCAAGCGUGGCGAGUAUAAA (ssRNA) [Eterna 2 (No-binding control)], > 3 µM.
As for B16, binding was characterised by a dissociation constant (Kd) of 0.00563 µM.
For B17, the Kd was > 3 µM.
For the molecule B18, binding was characterised by a dissociation constant (Kd) of 0.0144 µM.
In the case of B19 it was > 3 µM; in that of B20, > 3 µM; in that of UUUUCAGAACUUAUUU (ssRNA) [Eterna 3 (ShortRNAControl)], > 3 µM.
Take B21: the Kd was > 3 µM.
For B22, the Kd is > 3 µM.
Consider B23, for which the Kd was > 3 µM.
In turn, B24 yielded a Kd of 0.0118 µM.
For the molecule B25, the Kd is > 3 µM.
For B26 the value was 0.0158 µM; for B27, > 3 µM; for B28, > 3 µM.

Broadly, the Kd is a measure of binding affinity in units of concentration. Lower therefore signals higher affinity.
